# Reference: patent US10533231B2, “Artificial bioluminescent enzyme” (NATIONAL INSTITUTE OF ADVANCED INDUSTRIAL SCIENCE AND …, priority 2012, dated 2020)
# Residue numbers refer to the chain shown, from its start. “Also recorded” adds a separate entry of the source.
# B1: ALuc31: artificial luciferase containing a His tag, SEQ ID NO: 33 (protein)
# chain: MMGIKVLFALICFALVQANHHHHHHHHDIVGVEGKFGTTDLETDLFTIVEDMNVISRDTDVDANRADRGRRGELPGKKLPLEVLKELEANAQKAGCTRGCLICLSHIKCTAKMKKWLPGRCESWEGDKETGQGGIGEAIVDIPEIPGFKELAPMEQFIAQVDLCADCTTGCLKGLANVKCSALLKKWLPSRCAGFADKIQAQVDTIKGAGGS
# modifications: His tag; Synthetic ALuc31
# B2: ALuc32: artificial luciferase containing a c-Myc-tag, SEQ ID NO: 34 (protein)
# chain: B1 chain with H20E, H21Q, H22K, H23L, H24I, H25S, H26E, H27E, I29L, E73K
# modifications: c-Myc tag; Synthetic ALuc32
# B3: ALuc24: artificial luciferase, SEQ ID NO: 27 (protein)
# chain: MMGIKVLFALICFALVQANPTENKDDIDIVGVEGKFGTTDLETDLFTIVEDMNVISRDTDVDANRADRGRRGKLPGKKLPLEVLKELEANAQKAGCTRGCLICLSHIKCTAKMKKWLPGRCESWEGDKETGQGGIGEAIVDIPEIPGFKNMAPMEQFIAQVDLCADCTTGCLKGLANVKCSNLLKKWLPSRCKGFANKIQAEVDTIKGLGGS
# modifications: Synthetic ALuc24
# B4: ALuc23: artificial luciferase, SEQ ID NO: 16 (protein)
# chain: B3 chain with N150E, M151L, N182A, K193A, N197D, E202Q, L209A
# modifications: Synthetic ALuc23
# B5: ALuc22: artificial luciferase, SEQ ID NO: 15 (protein)
# chain: MMGVKLIFAVLCVAVAQANATINENFEDIDLVAIGGSFADLETDLFTIVEDMNVISRDTDVDANRGGRGRRGKLPGKKLPLEVLKELEANAQKAGCTRGCLICLSHIKCTAKMKKWLPGRCESWEGDKETGQGGIGEAIVDIPEIPGFKDLEPMEQFIAQVDLCVDCTTGCLKGLANVKCSDLLKKWLPSRCATFASKIQAQVDKIKGAGGS
# modifications: Synthetic ALuc22
# B6: ALuc25: artificial luciferase, SEQ ID NO: 17 (protein)
# chain: B5 chain with D150E, E152A, V165A, D182A, T194G, S197D, K205T
# modifications: Synthetic ALuc25
# Key:
# COS-7 cells [1] = experiment: Enzymatic activity confirmation of ALuc (section 3-1, 3-2); format: cell-based, African monkey; settings: vs conventional copepod luciferases
# Protocol: First, using a known lipid reagent for gene introduction, an expression vector encoding ALuc is introduced into African monkey-derived COS-7 cells; as a control, an expression vector having a known GLuc without any mutation into the cells is also introduced in the same manner. At a predetermined time (from 10 to 20 hours, for example, 16 hours) after the introduction of the vector, a cell lysate is prepared using a known lysis reagent.
# Thereafter, the cell lysate is mixed with a known substrate solution containing coelenterazine, and its color intensity, temporal stability in luminescence, etc., are measured.
# The luminescence intensity may be found by measuring the intensity at a specific wavelength using a known luminescence spectrophotometer after addition of a known substrate. By performing the measurement every minute, the temporal stability in luminescence can be evaluated. To measure a shift to a longer wavelength, scanning of the entire wavelength is necessary.
# COS-7 cells [2] = experiment: Luminescence of ALuc25 to ALuc32 in lysate and medium (Example 1-18); format: cell-based; settings: 20 hours after plasmid introduction
# Protocol: After the insertion of a gene encoding an enzyme sequence as mentioned above into a mammalian expression vector (pcDNA3.1 (+)), each plasmid was introduced into COS-7 cells. By the transformation of these cells, each luciferase was expressed, and some of the luciferase was secreted out of the cells and some of the luciferase retained in the cells. 20 hours after the plasmid introduction, media of the cells were sampled, and the remaining cells were lysed with a lysis buffer (lysate preparation). Immediately after 50 μL of assay solution (containing a substrate) was simultaneously added to each prepared medium (5 μL) or lysate (5 μL), the luminescence value was measured using a luminescence analyzer (LAS-4000; FujiFilm) (n=3) (FIG. 18).
# COS-7 cells [3] = experiment: Luminescence characteristics of tag-containing ALucs (Example 1-22); format: cell-based; settings: medium two days after gene transfer
# Protocol: To compare the relative luminescence intensity of these luciferases, the following experiment was conducted. First, a gene encoding each luciferase was subcloned into pcDNA3.1 (+), which is a eukaryotic expression vector, and each vector was introduced into COS-7 cells. Two days after gene transfer, the relative luminescence intensity of luciferase secreted into each medium was compared using a luminescence reagent produced by Promega.
# COS-7 cells [4] = experiment: Luminescence stability of ALucs after substrate injection (Example 1-3); format: cell-based, African green monkey; settings: Promega lysis and reaction solution
# Protocol: The luminescence stability of the artificial luciferases (ALucs) of the present invention was examined in various respects (FIG. 3). COS-7 cells containing each luciferase gene were cultured for 9 hours, and treated with a cell lysis solution produced by Promega for 20 minutes. Temporal changes in luciferase luminescence intensity after the introduction of a substrate-containing reaction solution produced by Promega were observed every five minutes (FIG. 3A).
# This experiment was expanded to artificial luciferases ALuc16 to ALuc25 (FIG. 3BC).
# [5] = Temporal change in luminescence after substrate injection, medium 25 days after expression (Example 1-19); format: biochemical; settings: for temporal change of luminescence after substrate injection: medium 25 days after expression
# Protocol: 50 μL of an assay solution (containing native coelenterazine, produced by Promega) was added to 5 μL of each medium 25 days after the expression, and the luminescence value (enzymatic activity) was measured using an LAS-4000 (produced by FujiFilm).
# [6] = Prolonged activity stability of ALucs secreted in medium (Example 1-19); format: physicochemical; settings: Day 0 to Day 25
# Protocol: The prolonged activity stability of the artificial luciferases (ALucs) developed in the present invention was examined. First, a plasmid expressing each artificial luciferase (ALuc16, ALuc22, ALuc23, ALuc24, ALuc25, and ALuc30) (in the figure, each is referred to as A16, A22, A23, A24, A25, and A30) was introduced into COS-7 cells, and then culturing was continued for 24 hours. By the culturing, each artificial luciferase was secreted into the medium. The artificial luciferase secreted in the medium was collected, and a difference in enzymatic activity was measured under the same conditions in the following manner. On the first day (Day 0), 50 μL of assay solution (containing native coelenterazine, produced by Promega) was added to 5 μL of each medium, and the luminescence value (enzymatic activity) was measured using an LAS-4000 (produced by FujiFilm). In the same manner, the luminescence value on Day 8, Day 16, and Day 25 was compared with the luminescence value on Day 0 (FIG. 19 (A)).
# COS-7 cells [7] = experiment: Comparison of luminescence intensity of ALucs (Example 1-2); format: cell-based, African green monkey; settings: COS-7 cultured overnight, Promega assay solution, LAS-4000
# From the text: The artificial luciferase (ALuc) genes synthesized by the above process were subcloned into mammalian cell expression vectors (pcDNA3.1 (+)). Each expression vector was transfected with African green monkey kidney-derived COS-7 cells, and the luminescence intensity, luminescence stability, and red-shifted degree of artificial luciferases (ALucs) were compared (FIGS. 2 to 5).
# First, the luminescence intensity of artificial luciferases (ALucs) was compared (FIG. 2). For the comparison, COS-7 cells containing a vector encoding each luciferase were cultured overnight, and then the relative luminescence intensity was measured by using an assay solution, which is a mixture of a cell lysis solution and a substrate, produced by Promega, and a luminescence image analyzer (LAS-4000).
# COS-7 cells [8] = experiment: Degree of extracellular secretion of ALucs (Example 1-4); format: cell-based, African green monkey; settings: luminescence intensity of the medium, overnight culture
# Protocol: Further, each luciferase (ALuc) was introduced into COS-7 cells, culturing was performed overnight, and then the amount of each luciferase (ALuc) secreted from the cells was measured based on the luminescence intensity of the medium (FIG. 4B).
# [9] = Heat resistance of ALucs in lysate (Example 1-4); format: physicochemical; settings: for change of luminescence intensity by heating: 80° C. for 10 minutes
# Protocol: The heat resistance and degree of extracellular secretion of artificial luciferases of the present invention were measured (FIG. 4). First, to measure heat resistance, COS-7 cells containing each luciferase were lysed in cell lysis solutions produced by Promega to prepare lysates. Subsequently, same samples were allowed to stand at room temperature or heated at 80° C. for 10 minutes, and changes in luminescence intensity were compared by using a (substrate-containing) reaction solution produced by Promega.
Molecule,luminescence stability (general statement) (COS-7 cells [1]),luminescence from cell medium (COS-7 cells [2]),luminescence value from lysate (COS-7 cells [2]),relative luminescence intensity (COS-7 cells [3]),luminescence intensity (initial) (COS-7 cells [4]),luminescence stability / sustainability after substrate injection (COS-7 cells [4]),temporal change of luminescence after substrate injection [5],prolonged enzymatic activity stability [6],"luminescence intensity higher than that of conventional GLuc, Renilla luciferase and MpLuc4 (COS-7 cells [7])",time of maximum luminescence value after infusion of coelenterazine ([5]; after long-term conservation (25 days)),extracellular secretion (COS-7 cells [8]),change of luminescence intensity by heating [9],reduction of luminescence intensity by heating ([9]; 80° C. for 10 minutes vs room temperature)
B1,remarkably stable luminescence signals,strong bioluminescence,extremely higher than those of conventional GLuc and MpLuc4,,,,,,,,,,
B2,remarkably stable luminescence signals,,,relatively poor luminescence intensity,,,,,,,,,
B3,remarkably stable luminescence signals,,,,slightly low in luminescence intensity; also recorded: relatively low luminescence intensity,excellent in luminescence stability; also recorded: extremely higher luminescence sustainability than other artificial luciferases,abrupt increase in luminescence value after 6 minutes,maintained stable enzymatic activity until Day 25,,,,,
B4,remarkably stable luminescence signals,,,,advantageous initial luminescence intensity,,several times higher,,about 50 folds,12 min,relatively high extracellular secretion,a remarkable reduction in luminescence intensity that may be due to heating was not observed,
B5,remarkably stable luminescence signals,,,,advantageous initial luminescence intensity,decreased to about half of the original luminescence intensity after 6 minutes,,significant decrease in enzymatic activity,about 50 folds,,low extracellular secretion,significantly decreased,about 40%
B6,remarkably stable luminescence signals,,extremely higher than those of conventional GLuc and MpLuc4,,advantageous initial luminescence intensity,,,maintained stable enzymatic activity until Day 25,about 50 folds,,low extracellular secretion,a remarkable reduction in luminescence intensity that may be due to heating was not observed,
